Source: paper PMC8809517, “Cofactor-independent RNA editing by a synthetic S-type PPR protein”

T1: GFP-9S library array, motif 4 ND N98T;D124C (synthetic construct, N98T;D124C)
T1 chain: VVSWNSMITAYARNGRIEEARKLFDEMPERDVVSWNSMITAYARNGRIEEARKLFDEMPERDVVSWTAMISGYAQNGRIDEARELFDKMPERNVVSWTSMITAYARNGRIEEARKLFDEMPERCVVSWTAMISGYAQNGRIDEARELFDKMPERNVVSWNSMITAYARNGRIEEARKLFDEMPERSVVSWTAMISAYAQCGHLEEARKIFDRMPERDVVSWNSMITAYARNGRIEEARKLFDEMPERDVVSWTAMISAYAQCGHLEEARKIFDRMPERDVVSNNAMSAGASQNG

T2: GFP-9S library array, motif 4 ND N98A (synthetic construct, N98A)
T2 chain: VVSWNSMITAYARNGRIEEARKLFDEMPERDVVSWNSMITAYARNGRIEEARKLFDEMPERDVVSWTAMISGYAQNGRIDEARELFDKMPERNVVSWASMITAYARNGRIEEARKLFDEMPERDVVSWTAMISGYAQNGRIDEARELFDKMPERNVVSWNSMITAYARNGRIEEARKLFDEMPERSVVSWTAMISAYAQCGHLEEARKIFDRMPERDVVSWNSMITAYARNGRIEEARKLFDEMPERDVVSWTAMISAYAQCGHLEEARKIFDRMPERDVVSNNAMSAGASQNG

T3: GFP-9S library array, motif 4 ND N98I;D124H (synthetic construct, N98I;D124H)
T3 chain: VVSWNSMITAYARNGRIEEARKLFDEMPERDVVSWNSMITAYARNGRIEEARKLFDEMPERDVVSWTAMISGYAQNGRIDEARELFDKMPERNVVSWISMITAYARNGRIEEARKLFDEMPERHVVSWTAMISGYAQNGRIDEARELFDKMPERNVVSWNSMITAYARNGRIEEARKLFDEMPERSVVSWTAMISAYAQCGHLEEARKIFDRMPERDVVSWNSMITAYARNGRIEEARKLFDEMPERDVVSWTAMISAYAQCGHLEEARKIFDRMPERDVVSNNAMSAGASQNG

T4: GFP-9S library array, motif 4 ND N98L;D124M (synthetic construct, N98L;D124M)
T4 chain: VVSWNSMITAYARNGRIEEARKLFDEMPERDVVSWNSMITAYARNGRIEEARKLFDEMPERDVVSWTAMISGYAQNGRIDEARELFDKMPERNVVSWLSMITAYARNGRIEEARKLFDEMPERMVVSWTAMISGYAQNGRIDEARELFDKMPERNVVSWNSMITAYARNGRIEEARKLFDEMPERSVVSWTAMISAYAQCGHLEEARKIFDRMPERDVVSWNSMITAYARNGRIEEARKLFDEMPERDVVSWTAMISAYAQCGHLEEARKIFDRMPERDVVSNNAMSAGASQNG

T5: GFP-9S library array, motif 4 ND N98G;D124A (synthetic construct, N98G;D124A)
T5 chain: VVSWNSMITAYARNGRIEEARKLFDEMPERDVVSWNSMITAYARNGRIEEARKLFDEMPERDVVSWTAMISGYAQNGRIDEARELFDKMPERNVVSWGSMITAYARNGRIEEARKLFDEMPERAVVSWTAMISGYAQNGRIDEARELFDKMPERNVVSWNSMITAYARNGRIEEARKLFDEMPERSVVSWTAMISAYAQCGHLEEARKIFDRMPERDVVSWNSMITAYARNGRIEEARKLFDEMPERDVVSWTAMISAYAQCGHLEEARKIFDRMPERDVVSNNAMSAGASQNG


Experiments:
Assay in all cases: high-throughput RNA pulldown from lysate on Ni-NTA beads; HRP: 50 mM Tris pH 8, 150 mM NaCl, 1 mM beta-mercaptoethanol, 50 ug/ml BSA, 3 ug/ml yeast RNA, 0.5% heparin; ITC and FP: Tris pH 8, 200 mM KCl, 5% glycerol; MST: 50 mM Tris pH 8, 200 mM NaCl, 1 mM DTT, BSA, heparin, 0.05% Tween 20
Conditions in all cases: tags: N-terminal His-eGFP
[1] = target: T1, GFP-9S library array, motif 4 ND …
[2] = target: T2, GFP-9S library array, motif 4 ND N98A
[3] = target: T3, GFP-9S library array, motif 4 ND …
[4] = target: T4, GFP-9S library array, motif 4 ND …
[5] = target: T5, GFP-9S library array, motif 4 ND …

| Binder | Kd ([1]; label: 5' IRDye 800CW) | Kd ([2]; label: 5' IRDye 800CW) | Kd ([3]; label: 5' IRDye 800CW) | Kd ([4]; label: 5' IRDye 800CW) | Kd ([5]; label: 5' IRDye 800CW) | Kd ([1]; label: 5' Cy5) | Kd ([2]; label: 5' Cy5) | Kd ([3]; label: 5' Cy5) | Kd ([4]; label: 5' Cy5) | Kd ([5]; label: 5' Cy5) |
| --- | --- | --- | --- | --- | --- | --- | --- | --- | --- | --- |
| AUUAUACGUGA (ssRNA) [IR-rpoA-U] | 119 nM | 50.8 nM | 243 nM | 176 nM | 175 nM |  |  |  |  |  |
| AUUAAACGUGA (ssRNA) [IR-rpoA-A] | 88.6 nM | 223 nM | 167 nM | 381 nM | 133 nM |  |  |  |  |  |
| AUUACACGUGA (ssRNA) [Cy5-rpoA] |  |  |  |  |  | 330 nM | 194 nM | 147 nM | 104 nM | 124 nM |
| AUUAGACGUGA (ssRNA) [Cy5-rpoA-G] |  |  |  |  |  | 8.1 nM | 156 nM | 107 nM | 122 nM | 101 nM |
